Assay results: ChEMBL document CHEMBL3091431, “Aminopyridyl/Pyrazinyl Spiro[indoline-3,4'-piperidine]-2-ones As Highly Selective and Efficacious c-Met/ALK Inhibitors” (ACS Med Chem Lett, 2013)

Compound: Nc1ncnc2c1ncn2[C@@H]1O[C@H](COP(=O)(O)OP(=O)(O)OP(=O)(O)O)[C@@H](O)[C@H]1O
Test: Inhibition of human ALK (unknown origin) using poly[Glu:Tyr] as substrate by nanoliter kinase assay

B1: ALK tyrosine kinase receptor (Homo sapiens), Q9UM73 (protein)
chain: MGAIGLLWLLPLLLSTAAVGSGMGTGQRAGSPAAGPPLQPREPLSYSRLQRKSLAVDFVVPSLFRVYARDLLLPPSSSELKAGRPEARGSLALDCAPLLRLLGPAPGVSWTAGSPAPAEARTLSRVLKGGSVRKLRRAKQLVLELGEEAILEGCVGPPGEAAVGLLQFNLSELFSWWIRQGEGRLRIRLMPEKKASEVGREGRLSAAIRASQPRLLFQIFGTGHSSLESPTNMPSPSPDYFTWNLTWIMKDSFPFLSHRSRYGLECSFDFPCELEYSPPLHDLRNQSWSWRRIPSEEASQMDLLDGPGAERSKEMPRGSFLLLNTSADSKHTILSPWMRSSSEHCTLAVSVHRHLQPSGRYIAQLLPHNEAAREILLMPTPGKHGWTVLQGRIGRPDNPFRVALEYISSGNRSLSAVDFFALKNCSEGTSPGSKMALQSSFTCWNGTVLQLGQACDFHQDCAQGEDESQMCRKLPVGFYCNFEDGFCGWTQGTLSPHTPQWQVRTLKDARFQDHQDHALLLSTTDVPASESATVTSATFPAPIKSSPCELRMSWLIRGVLRGNVSLVLVENKTGKEQGRMVWHVAAYEGLSLWQWMVLPLLDVSDRFWLQMVAWWGQGSRAIVAFDNISISLDCYLTISGEDKILQNTAPKSRNLFERNPNKELKPGENSPRQTPIFDPTVHWLFTTCGASGPHGPTQAQCNNAYQNSNLSVEVGSEGPLKGIQIWKVPATDTYSISGYGAAGGKGGKNTMMRSHGVSVLGIFNLEKDDMLYILVGQQGEDACPSTNQLIQKVCIGENNVIEEEIRVNRSVHEWAGGGGGGGGATYVFKMKDGVPVPLIIAAGGGGRAYGAKTDTFHPERLENNSSVLGLNGNSGAAGGGGGWNDNTSLLWAGKSLQEGATGGHSCPQAMKKWGWETRGGFGGGGGGCSSGGGGGGYIGGNAASNNDPEMDGEDGVSFISPLGILYTPALKVMEGHGEVNIKHYLNCSHCEVDECHMDPESHKVICFCDHGTVLAEDGVSCIVSPTPEPHLPLSLILSVVTSALVAALVLAFSGIMIVYRRKHQELQAMQMELQSPEYKLSKLRTSTIMTDYNPNYCFAGKTSSISDLKEVPRKNITLIRGLGHGAFGEVYEGQVSGMPNDPSPLQVAVKTLPEVCSEQDELDFLMEALIISKFNHQNIVRCIGVSLQSLPRFILLELMAGGDLKSFLRETRPRPSQPSSLAMLDLLHVARDIACGCQYLEENHFIHRDIAARNCLLTCPGPGRVAKIGDFGMARDIYRASYYRKGGCAMLPVKWMPPEAFMEGIFTSKTDTWSFGVLLWEIFSLGYMPYPSKSNQEVLEFVTSGGRMDPPKNCPGPVYRIMTQCWQHQPEDRPNFAIILERIEYCTQDPDVINTALPIEYGPLVEEEEKVPVRPKDPEGVPPLLVSQQAKREEERSPAAPPPLPTTSSGKAAKKPTAAEISVRVPRGPAVEGGHVNMAFSQSNPPSELHKVHGSRNKPTSLWNPTYGSWFTEKPTKKNNPIAKKEPHDRGNLGLEGSCTVPPNVATGRLPGASLLLEPSSLTANMKEVPLFRLRHFPCGNVNYGYQQQGLPLEAATAPGAGHYEDTILKSKNSMNQPGP
**Q.** How did the Km turn out when B1 was run?
**A.** 50 µM
